Data on three molecules can be found in US20170355777A1 (UNIVERSITY OF LEICESTER, published 2017).

Where only a bound is given, the exact number is not on record here.

The target of this assay is T1, recombinant MLP (rMLP) C-terminal fusion protein: N-terminal histidine tag fused to residues 279-431 of human … (human).
T1 construct: Expressed in E. coli from pRSETB and purified on a nickel column; ran at 28 kDa; also called rMLP C-terminal protein; recombinant MLP C-terminal protein
T1 chain: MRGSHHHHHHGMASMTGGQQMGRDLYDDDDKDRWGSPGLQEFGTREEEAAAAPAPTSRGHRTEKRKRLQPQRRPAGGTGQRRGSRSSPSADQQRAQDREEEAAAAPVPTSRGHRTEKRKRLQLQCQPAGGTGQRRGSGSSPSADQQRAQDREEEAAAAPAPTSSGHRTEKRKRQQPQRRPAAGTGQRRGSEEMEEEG
The experiment in a line: KD (binding to rMLP); method not described at the table.

B1: anti-MLP monoclonal antibody αMLP Clone C (hybridoma ATCC PTA-121701) (antibody, IgG1, V domains shown)
VH: DVKLQESGGGLVQPGGSMKLSCVASGFTFSNYWMNWVRQSPEKGLEWVAEIRLKSNNYAINYAESVKGRFTISRDDSKSSVYLDMNNLRAEDTGIYYCTSYYGSSLYYLDYWGQGTTLTVSS
VL: QIVLTQSPVIMSASPGEKVTISCSASSSVSNMYWYQQKPGSSPKAWIYRTSNLASGVPARFSGSGSGTSYSLTISSMEAEDAATYYCHQYQSYPRTFGAGTKLEIK
notes: also called 2(C); mAb clone C
Usually Kd stands for the equilibrium constant for the complex coming apart. Consider B1, for which the Kd was less than 1000 pM.

B2: anti-MLP monoclonal antibody αMLP Clone B (hybridoma ATCC PTA-121700) (antibody, IgG2a, V domains shown)
VH: EVQLQQSGPELVKPGASVKISCKASGYSFTGFYIHWVKQSHVKSLEWIGRIHPYNGAPTYNQNFKDRARLTVHESSSTAYMEFFGLTSEDSAVYYCARERVYYYGSTYEFDFWGQGTTLTVSS
VL: DVLMTQTPLSLPVSLGDQASISCRSGQSIVHSSGVTYLSWYLQKPGQSPKLLIYKVFYRFSGVPDRFSGSGSGTDFTLKISRVEAEDLGVYYCFQGSHVPPTFGTGTKLELK
notes: also called mAb clone B
As for B2, the Kd was less than 1000 pM.

B3: anti-MLP monoclonal antibody αMLP Clone 11 (hybridoma ATCC PTA-121699) (antibody, IgG2b, V domains shown)
VH: EVQLQQSGPELVKPGASVKISCKASGYAFTGFYIHWMKQSHVKSLEWIGRIHPYNGATSYNQNFKDRASLTVDESSSTAYMEFYGLTSEDSAVYYCARERVYYYGSTYEFDSWGQGTTLTVSS
VL: DVLMTQTPLSLPVSLGDQASISCRSGQSIVHTSGVTYLSWYLQKPGQSPKLLIYKVFYRFSGVPDRFSGSGSGTDFTLKISRVESEDLGVYYCFQGSHVPPTFGAGTKLELK
notes: also called mAb clone 11
Consider B3, for which the dissociation constant Kd is 200 pM.
